Four molecules from patent publication US20120014941A1 (Hoffmann-La Roche, published 2012) can be followed below.

Test [1] has as its target T1, recombinant human Bv8 (PeproTech) (human, UniProt Q9HC23-2 28-108, biotinylated (Sulfo-NHS-LC-biotin) in the two competition ELISAs with coated antibody).
T1 construct: Bought protein; also called HuBv8; prokineticin-2
T1 sequence (looked up): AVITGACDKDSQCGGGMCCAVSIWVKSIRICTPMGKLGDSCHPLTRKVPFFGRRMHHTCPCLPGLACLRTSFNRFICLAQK
The test is described as follows: SPR (BIAcore 3000, 25 C): human Bv8 coupled to CM5 chip, IgG injected; 1:1 Langmuir fit. The text has this:
(§1) For binding affinity determinations of anti-Bv8 antibodies (Fab or IgG), Surface Plasmon Resonance (SRP) measurement with a BIAcore™-3000 instrument was used. Briefly, CM5 biosensor chip was activated with EDC and NHS reagents according to the supplier's instructions, and human Bv8 (PeproTech) or Cynomologus Monkey (Genentech; PUR21590) was coupled to achieve approximately 150 response units (RU), then following by blocking un-reacted groups with 1M ethanolamine. For kinetics measurements, two-fold serial dilutions of anti-Bv8 Fabs (0.19 nM to 25 nM) or IgGs (0.019 nM to 10 nM) were injected in HBS-P buffer (0.01M HEPES pH 7.4, 0.15M NaCl, 0.005% surfactant P20) at 25° C. with a flow rate of 30 μl/min. Association rates (kₒₙ) and dissociation rates (koff) were calculated using a simple one-to-one Langmuir binding model (BIAcore Evaluation Software version 3.2). The equilibrium dissociation constant (Kd) was calculated as the ratio koff/kₒₙ.

Test [2] concerns the target T1, recombinant human Bv8 (PeproTech). The test is described as follows: SPR, BIAcore-3000, Bv8 coupled to CM5 chip, IgG (FIG. 21).
Description: as §1

Test [3] has the same target. The test can be described thus: SPR (BIAcore 3000, 25 C): human Bv8 coupled to CM5 chip, IgG injected; 1:1 Langmuir fit; off-rate followed for 30 min.
Description: as §1

Test [4] shares this target. The test is described as above.
Description: as §1
This is another data set of the same source.

The target in test [5] is Cynomologus Monkey Bv8 (Genentech; PUR21590) (cynomolgus monkey). The test can be described thus: SPR (BIAcore 3000, 25 C): cynomolgus monkey Bv8 coupled to CM5 chip, IgG injected; 1:1 Langmuir fit.
Test [6] concerns the target T1, recombinant human Bv8 (PeproTech). The test can be described thus: competitive ELISA: antibody in serial dilution mixed with biotinylated human Bv8 (57 pM) and put on plate coated with mouse 2G9 IgG1 (m5, the competitor); streptavidin-HRP, OD 450/620; four-parameter fit. The protocol:
Maxisorp 384 well plates were coated with 1 μg/ml parent mouse 2G9 IgG1 antibody at 25 μl/well in 50 mM sodium carbonate buffer, pH 9.6, at 4° C. overnight. Plates were washed with phosphate buffered saline (PBS) containing 0.05% polysorbate, pH 7.4 and blocked with PBS containing 0.5% BSA, 10 ppm Proclin, pH 7.4, at 80 μL1/well. After one-hour incubation at room temperature, plates were washed. A mixture of serially diluted humanized 2G9 antibodies (0.11 pM-180 nM) in PBS containing 0.5% BSA, 0.05% polysorbate 20, pH 7.4 and biotinylated human Bv8 (final concentration 0.5 ng/ml or 57 pM) were added at 25 μL1/well. After two hour incubation, plates were washed and horseradish peroxidase conjugated streptavidin (GE Healthcare) was added. After a final 30 minute incubation, plates were washed and the substrate 3,3′,5,5′-tetramethyl benzidine (Kirkegaard & Perry Laboratories) was added. The reaction was stopped by adding 1 M phosphoric acid and absorbance was read at 450 nm on a Multiskan Ascent reader (Thermo Scientific, Hudson, N.H.). For data analysis, the titration curves were fitted using a four-parameter nonlinear regression curve-fitting program and the IC₅₀ concentrations were determined (KaleidaGraph, Synergy Software, Reading, Pa.).

Test [7] deals with Cynomologus Monkey Bv8 (Genentech; PUR21590) (cynomolgus monkey). The test is described as follows: SPR, BIAcore-3000, Bv8 coupled to CM5 chip, IgG (FIG. 21).
For test [8], the target named is T1, recombinant human Bv8 (PeproTech). The test is described as follows: SPR (BIAcore 3000, 25 C): human Bv8 coupled to CM5 chip, IgG injected; 1:1 Langmuir fit.
Description: as §1
The source holds these as a separate data set.

Test [9] concerns the target Cynomologus Monkey Bv8 (Genentech; PUR21590) (cynomolgus monkey). The test can be described thus: SPR (BIAcore 3000, 25 C): cynomolgus monkey Bv8 coupled to CM5 chip, IgG injected; 1:1 Langmuir fit; off-rate followed for 30 min.
Test [10] has the same target. The test is described as follows: SPR (BIAcore 3000, 25 C): cynomolgus monkey Bv8 coupled to CM5 chip, IgG injected; 1:1 Langmuir fit. This is another data set of the same source.
The target of test [11] is T1, recombinant human Bv8 (PeproTech). The test is described as follows: phage competition ELISA, Fab displayed on phage. How it is done:
(§2) MAXISORP™ microtiter plates were coated with recombinant human Bv8 (PeproTech) at 2 μg/ml in PBS overnight and then blocked with PBST buffer (0.5% BSA and 0.05% Tween 20 in PBS) for an hour at room temperature (RT). Phage from culture supernatants were incubated with serially diluted human Bv8 in PBST buffer in a tissue-culture microtiter plate for an hour at RT, after which 80 μl of the mixture was transferred to the target-coated wells for 15 minutes to capture unbound phage. The plate was washed with PBT buffer (0.05% Tween 20 in PBS), and HRP-conjugated anti-M13 (Amersham Pharmacia Biotech) was added (1:5000 in PBST buffer) for 40 minutes. The plate was washed with PBT buffer and developed by adding tetramethylbenzidine substrate (Kirkegaard and Perry Laboratories, Gaithersburg, Md.). The absorbance at 450 nm was plotted as a function of target concentration in solution to determine phage IC₅₀.

Test [12] shares this target. The test can be described thus: phage competition ELISA: Fab-displaying phage preincubated with serially diluted soluble human Bv8 (the concentration on the axis), unbound phage captured on plate-coated human Bv8, anti-M13-HRP; bound phage in %. The protocol:
as §2

Test [13] shares this target. The test is described as follows: competition ELISA: IgG in serial dilution preincubated with 2 nM biotinylated human Bv8, then put on plate coated with chimeric 2B9 IgG (the competitor); bound biotin-Bv8 read with streptavidin-HRP, in %. The protocol:
NUNC™ 96-well Maxisorp immunoplates (NUNC; Roskilde, Denmark) were coated with chimeric 2B9 IgG at 1 μg/mL in PBS overnight and then blocked for an hour at room temperature with PBST buffer (0.5% BSA and 0.05% Tween 20 in PBS). Biotinylation of human Bv8 was prepared using EZ-link Sulfo-NHS-LC-Biotin (Catalog 21335; Pierce; Rockford, Ill.) reagent in a molar ratio of 1:4 (HuBv8: biotin).
To determine the amount of biotinylated human Bv8 in the competition assay, threefold serially diluted biotinylated human Bv8 from 100 nM to 0.04 nM were added to the antibody-coated plates for 15 minutes. Then, the plates were washed with PBT buffer (PBS and 0.05% Tween 20). Bound biotinylated were detected using streptavidin, which were conjugated with horseradish peroxidase (Catalog 21126; Pierce; Rockford, Ill.) and diluted 1:2500 in PBST buffer. […] The optical density was read spectrophotometrically at 450 nm.
To map the Bv8 antibody epitopes with chimeric 2B9, threefold serial dilutions of IgGs (chimeric 2B9, chimeric 3F1, chimeric 2D3, chimeric 2G9 and control IgG) were first incubated with 2 nM biotinylated human Bv8, determined by the above binding assay, in PBST buffer for 1-2 hours at room temperature, and then transferring it onto antibody (chimeric 2B9 IgG; 1 μg/mL)-coated plate for 15 min. […]

Read-outs that look alike come from different tables or passages of the source.

B1: h2G9.K4G1.v19 IgG (antibody, V domains shown)
VH: EVQLVQSGAEVKKPGASVKVSCKASGYSLTNYDMHWVRQAPGQGLEWIGYIHSYSGSTLYNQKFKGRVTITVDKSTSTAYLELSSLRSEDTAVYYCARDSNYGEAYAMDYWGQGTLVTVSS
VL: DIVMTQSPDSLAVSLGERATINCKASQSVDYSGDSYMNWYQQKPGQPPKLLIYAASNLESGVPDRFSGSGSGTDFTLTISSLQAEDVAVYYCQQINEDPFTFGQGTKVEIKR
notes: Variable domains only; IgG, constant regions not described; claims 6 and 7); also called humanized 2G9 variant 19
For B1, the kon in [1] stood at 760000 M⁻¹ s⁻¹; in test [5] it was 501000 M⁻¹ s⁻¹; in test [8], 760000 M⁻¹ s⁻¹. Moreover, the “fold tighter binding than chimeric 2G9” value in test [2] was at least 2 fold; in test [7] it was over 2 fold. Further, the Kd in test [3] was at most 7 pM; in test [4], at most 7 pM; in test [9] it was under 9 pM. For the same molecule, the results for the koff in test [3], in test [4] and in test [9] were at most 5e-06 s⁻¹, at most 5e-06 s⁻¹ and under 5e-06 s⁻¹, respectively. In addition, the IC50 in test [6] is 0.014 nM.

B2: h2G9.K4G1.v55 IgG (antibody, V domains shown)
VH: EVQLVQSGAEVKKPGASVKVSCKASGYSFTDYDMHWVRQAPGQGLEWIGYISSYSGATTYNQKFKGRVTITVDKSTSTAYLELSSLRSEDTAVYYCARDSNYGEAYAMDYWGQGTLVTVSS
VL: DIVMTQSPDSLAVSLGERATINCKASQSLDYYHYSYMNWYQQKPGQPPKLLIYAASNRESGVPDRFSGSGSGTDFTLTISSLQAEDVAVYYCQQINEDPFTFGQGTKVEIKR
notes: Variable domains only; IgG, constant regions not described; claims 8 and 9); also called humanized 2G9 variant 55
For B2, the kon in test [1] amounted to 950000 M⁻¹ s⁻¹; in [5], 775000 M⁻¹ s⁻¹; in test [10], 780000 M⁻¹ s⁻¹; in [8], 945000 M⁻¹ s⁻¹. Besides, the “fold tighter binding than chimeric 2G9” value in test [2] is at least 2 fold; in test [7] it was over 2 fold. In addition, the figures for the Kd in test [3], in [4] and in [9] were at most 5 pM, at most 5 pM and under 6 pM, respectively. Besides, the koff in [3] is at most 5e-06 s⁻¹; in test [4], at most 5e-06 s⁻¹; in [9], under 5e-06 s⁻¹. Further, the IC50 in test [6] was 0.013 nM.

B3: h2G9.K4G1 variant CDR-H3 D95E (Fab, V domains shown)
VH: EVQLVQSGAEVKKPGASVKVSCKASGYSFTDYDMHWVRQAPGQGLEWIGYISCYNGATTYNQKFKGRVTITVDKSTSTAYLELSSLRSEDTAVYYCAREGNYGEAYAMDYWGQGTLVTVSS
VL: DIVMTQSPDSLAVSLGERATINCKASQSVDYDGDSYMNWYQQKPGQPPKLLIYAASNLESGVPDRFSGSGSGTDFTLTISSLQAEDVAVYYCQQINEDPFTFGQGTKVEIK
Turning to B3, the “fold drop in binding affinity compared to h2G9.K4G1” value in [11] was found to be 100 fold. Moreover, in test [12], the “IC50 (read off the curve)” value is about 4 nM.

B4: chimeric 2G9 anti-Bv8 antibody (IgG) (antibody, V domains shown)
VH: EVQLQQSGPEVVKTGASVKISCKASGYSFTDYDMHWVKQSQGKSLEWIGYISCYNGATTYNQKFKGKATFTVDKSSTTAYMQFNSLTSEDSAVYYCARDGNYGEAYAMDYWGQGTSLTVSS
VL: DIVLTQSPASLAVSLGQRATISCKASQSVDYDGDSYMNWYQQKPGQPPKLLIYAASNLESGIPARFSGSGSGTDFTLNIHPVEEEDAATYYCQQINEDPFTFGQGTKVEIK
notes: also called chimeric 2G9 IgG
Take B4: in [5], the Kd turned out to be 0.04 nM, the koff was determined as 2.5e-05 s⁻¹ and the kon was 646000 M⁻¹ s⁻¹. In addition, the IC50 in [6] was found to be 0.08 nM. In addition, the “IC50 (read off the curve)” value in test [13] is about 1 nM. Also, in [8], the Kd came to 0.02 nM, the koff was determined as 1.8e-05 s⁻¹ and the kon turned out to be 758000 M⁻¹ s⁻¹.
